Assay results as given in article PMC6402204, “Production Optimization of an Active β-Galactosidase of Bifidobacterium animalis in Heterologous Expression Systems” (BioMed Research International, 2019).

Substrate: O=[N+]([O-])c1ccccc1O[C@@H]1O[C@H](CO)[C@H](O)[C@H](O)[C@H]1O
Assay: purified protein
Format: biochemical, Bifidobacterium animalis
Conditions: pH 6.0, 100 mM Na2HPO4-citric acid, 60°C, oNPG 1.38-25 mM, free enzyme

B1: bG42-106 (Bifidobacterium animalis subsp. lactis) (protein)
chain: MSASTQHRAHRWPQPLPGNDRKIWFGADYNPDQWPEDVQDEDIRLMKQAGVNIVSLAIFSWANIETSDGNFEFDWLDRVIDKLYKAGIAVDLASATASPPMWLTSAHPEVLRRDEQGHVIWPGARQHWRPTSPTFRTYALRLCREMAEHYKDNPAIVSWHVGNEYGCHNYFDYSDDAVQAFREWCRDRYGTIDKVNAAWGTNFWSQRLNSFEEILPPRYVGGEGNFTNPGRLLDFKHFCSDALKEFFCAERDVLSEVTPNIPLTTNFMVSASQNTLDYDDWAHEVDFVSNDHYFTPGSWHIDELAYSASLVDGISRKKPWFLMEQSTSAVNWREINPRKEPGELIRDSMLHLAMGADAICYFQWRQSRSGAEKFHSAMLPLAGEHSQIYRDVCALGADLDTLSDAGILRSKLSKARVAIVQDIQSEWATEHTATPTQHIREWTEPLDWFAAFANRGVTADVTPIHAQWDTYDAVVIPCVYLFSEEMAERLRTFVRNGGKAFVTYYSALADEHDRLHTEGWPGLIGDVVGVRIEEHCPLGTLFPGMLDHLDVSNGTVVHDLADVIDAIADDTTVLATFEADPATGMDGRAAITVHPYHEGGVAYIAGKLGRDGISQSLPEICAALGFELDADPRAGDVLRVVREQEDGAIFEFLFNRTRNTVTADRPAGDMLICSLATDSTDKVTLEPNGVLAFRR
notes: full-length, 695 residues, 78 kDa calculated, no signal peptide; C-terminal His6 (pET-30a(+)), E. coli BL21(DE3), Ni-NTA purified; homodimer by native PAGE (~180 kDa)
Km: 5.14 mM
